In US20230287125A1 (LEPU BIOPHARMA, published 2023):

Key:
human PD-L1-Fc protein [1] = target: T1, human PD-L1-Fc protein (human, UniProt Q9NZQ7 19-238); experiment: ELISA, coated human PD-L1 (PD-L1-Fc per paragraph 110)
T1 construct: coating antigen of the ELISAs; also called rhPD-L1-Fc; not shown: Fc
Procedure: (§1) Briefly, microtiter plates were coated with human PD-L1-Fc protein at 0.5 μg/ml in PBS, 100 μl/well at 4° C. overnight, then blocked with 150 μl/well of 1% BSA. […] The plates were washed with PBS/Tween and then incubated with Mouse-anti-human IgG Fab antibody conjugated with Horse Radish Peroxidase (HRP) for 30 mins at 37° C. After washing, the plates were developed with TMB substrate and analyzed by spectrophotometer at OD 450 nm.
(§2) Briefly, microtiter plates were coated with human, mouse, rat and cynomolgus PD-L1 proteins at 0.5 μg/ml in PBS, 100 μl/well at 4° C. overnight, then blocked with 150 μl/well of 1% BSA. Three-fold dilutions of chimeric antibodies starting from 10 μg/ml were added to each well and incubated for 1 hour at 37° C. The plates were washed with PBS/Tween and then incubate with mouse-anti-human IgG Fab antibody conjugated with Horse Radish Peroxidase (HRP) for 30 mins at 37° C. After washing, the plates were developed with TMB substrate and analyzed by spectrophotometer at OD 450 nm.

[2] = target: T2, human PD-L1 over-expressed on CHOK1 cells (human, UniProt Q9NZQ7 19-290); experiment: flow cytometry on PDL1-CHOK1 cells
T2 construct: whole, on cells; also called PDL1-CHOK1 cells
T2 sequence (Q9NZQ7 19-290): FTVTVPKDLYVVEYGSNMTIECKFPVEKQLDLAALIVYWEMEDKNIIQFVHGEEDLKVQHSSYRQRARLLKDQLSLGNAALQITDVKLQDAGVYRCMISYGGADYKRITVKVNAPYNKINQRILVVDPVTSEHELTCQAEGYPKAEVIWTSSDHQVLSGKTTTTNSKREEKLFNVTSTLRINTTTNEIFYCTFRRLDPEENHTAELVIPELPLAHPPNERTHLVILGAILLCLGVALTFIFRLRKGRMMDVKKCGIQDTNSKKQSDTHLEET
Procedure: After washing by PBS, Alexa Fluor® 647 AffiniPure Goat Anti-Human IgG (H+L) was added to each well and incubated at 4° C. for 30 mins. Samples were washed twice with FACS buffer. The mean florescence intensity (MFI) of Alexa Fluor® 647 was evaluated by FACSCanto.

human PD-L1-Fc protein [3] = target: T1, human PD-L1-Fc protein; experiment: receptor blocking ELISA: coated human PD-L1-Fc, blocked ligand biotin-labeled human PD-1-Fc (Bio-PD1), OD 450nm; panel with Hu67F3G7-22 [cont'd]
Procedure: as §1, with “BSA at 37° C. for 2 hours.” for “BSA.”, “Streptavidin-HRP” for “Mouse-anti-human IgG Fab antibody conjugated with Horse Radish Peroxidase (HRP)”, “10” for “30”

human PD-L1-Fc protein [4] = target: T1, human PD-L1-Fc protein; experiment: receptor blocking ELISA: coated human PD-L1-Fc, blocked ligand biotin-labeled human CD80-Fc (Bio-CD80), OD 450nm; middle left panel (with Hu67F3G7-5)
Procedure: as §1, with “BSA at 37° C. for 2 hours.” for “BSA.”, “Streptavidin-HRP” for “Mouse-anti-human IgG Fab antibody conjugated with Horse Radish Peroxidase (HRP)”, “10” for “30”

[5] = target: T3, human PD-L1-his tag protein (human, UniProt Q9NZQ7 19-238); experiment: SPR (Biacore T200), mAb captured on Protein A chip, PD-L1-his injected
T3 construct: also called human PD-L1-His protein; recombinant PD-L1 protein; not shown: his tag
T3 sequence (Q9NZQ7 19-238 limits assumed): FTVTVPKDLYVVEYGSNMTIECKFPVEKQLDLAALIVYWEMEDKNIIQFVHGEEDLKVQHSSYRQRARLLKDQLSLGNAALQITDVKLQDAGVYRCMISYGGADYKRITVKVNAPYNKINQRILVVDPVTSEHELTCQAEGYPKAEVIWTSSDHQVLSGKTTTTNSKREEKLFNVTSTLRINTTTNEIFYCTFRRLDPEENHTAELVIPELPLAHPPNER
Procedure: A serial dilution of human PD-L1-his tag protein was injected over captured antibody for 2 mins at a flow rate of 30 μl/min. The antigen was allowed to dissociate for 480-1500 s. All the experiment were carried out on a Biacore T200. Data analysis was carried out using Biacore T200 evaluation software.

human PD-L1-Fc protein [6] = target: T1, human PD-L1-Fc protein; experiment: ELISA, antibody titrated on coated human PD-L1-Fc, OD 450nm; lower left panel (with Hu67F3G7-13 to -18); the table row is headed 'IC50' on the sheet although the curves rise
Procedure: as §2, with “To evaluate antigen binding activity, the humanized antibodies were subjected to ELISA test. Briefly,” for “Briefly,”, “with human PD-L1-Fc protein” for “with human, mouse, rat and cynomolgus PD-L1 proteins”, “with 200” for “with 150”, “of humanized” for “of chimeric”, “then incubated” for “then incubate”, “for 1 hour” for “for 30 mins”

human PD-L1-Fc protein [7] = target: T1, human PD-L1-Fc protein; experiment: receptor blocking ELISA: coated human PD-L1-Fc, blocked ligand biotin-labeled human PD-1-Fc (Bio-PD1), OD 450nm; upper right panel (with Hu67F3G7-3)
Procedure: as §1, with “BSA at 37° C. for 2 hours.” for “BSA.”, “Streptavidin-HRP” for “Mouse-anti-human IgG Fab antibody conjugated with Horse Radish Peroxidase (HRP)”, “10” for “30”

T1 sequence (Q9NZQ7 19-238 limits assumed): as above

EC50 (human PD-L1-Fc protein [1]): 0.0108 µg/mL
EC50 [2]: 0.103 nM
IC50 (human PD-L1-Fc protein [3]): 0.141 µg/mL
IC50 (human PD-L1-Fc protein [4]): 0.274 µg/mL
Kd [5]: 0.0244 nM
koff [5]: 6.19e-05 s⁻¹
kon [5]: 2.54e+06 M⁻¹ s⁻¹
EC50 (human PD-L1-Fc protein [6]): 0.0157 µg/mL
IC50 (human PD-L1-Fc protein [7]): 0.136 µg/mL
B1: 67F3G7 chimeric mAb (antibody, V domains shown)
VH: QVKLLQSGAALVKPGASVKMSCKASGYIFTDFWVSWVKQSHEKSLEWIGEIYPNSGVSRYNEKFKGRATMTVDKSTSTAYLELSRLTSEDSAIYYCTKYFGYTYWFGYWGQGTLVTVSS
VL: DTVLTQSPALAVSLGQRITISCRASKSVSTYMHWYQQRSGLQPKLLIYSASHLESGVPSRFSGSGSGTDFTLTIDPVEADDIANYYCQQSNELPVTFGSGTKLEIK
notes: chimeric mAb of the hybridoma clone; also called 67F3G7-chimera
